Measured values as given in publication PMC3590194.

Test system: bivalirudin (Angiomax), TMR-labeled (synthetic)
Assay: fluorescence anisotropy
Conditions: 5 mM Mg2+?; BB = PBS (no MgCl2/CaCl2) with 5 mM MgCl2 (flow cytometry, 1 h incubation; FA buffer not stated in the material); pH and binding temperature not stated

Sequence | Kd [µM]
ATCGTCTGCTCCGTCCAATACGTAACATCCCCGTAATACTACTACGGTCGTGCTGGTTTGGTGTGAGGTCGTGC [JPB2] | 5.99
ATCGTCTGCTCCGTCCAATATATTGTGTGACCCCCCTCTTGTTTTGGTGTGAGGTCGTGC [JPB5] | 5.76
